Patent US20210261606A1 (JSR, published 2021)

Molecular target: T1, trastuzumab Fab
T1 construct: Made by papain digestion of trastuzumab (Herceptin); also called Fab of trastuzumab (Herceptin)
Test: Biacore SPR, trastuzumab Fab immobilized, VHH as analyte, pH 7.4
Procedure: Those VHH antibodies were dispersed in HBS-EP (10 mM Hepes, 150 mM NaCl, 3 mM EDTA, and 0.005% Tween-20) to produce 12.5 to 150 nM VHH antibody solutions. The trastuzumab Fab prepared in Test Example 1 was immobilized on a Biacore sensor chip, and each VHH antibody solution was applied thereto. The measurements were performed under neutral conditions (pH 7.4). Curve fitting utilizing binding model was applied to association and dissociation behaviors, whereby evaluating the association rate constant (Kon), the dissociation rate constant (Koff), and the affinity (KD). Furthermore, this sensor chip was washed with an acidic eluent (10 mM Glycine-HCl+0.5M NaCl, pH 2.0) to measure a signal. From the obtained signal shape, the elution behavior of Ig by the acid was examined.

Binder	Kd [nM]	koff [s⁻¹]	kon [M⁻¹ s⁻¹]
mutant VHH antibody 2bS13-97H (VHH) VHH: QVQLVESGGGLVQAGGSLRLSCAASGISFAINNVAWYRQAPGKQRDLVALIDKYDTGNIADSVKGRFSISRDNAKNTAYLQMNSLKPEDTAVYYCNHLGTWIRAGPYWGQGTQVTVSS	0.205	0.004	1.97e+07
mutant VHH antibody 2bS13-102H (VHH, also called 2b513-102H) VHH: QVQLVESGGGLVQAGGSLRLSCAASGISFAINNVAWYRQAPGKQRDLVALIDKYDTGNIADSVKGRFSISRDNAKNTAYLQMNSLKPEDTAVYYCNALGTWHRAGPYWGQGTQVTVSS	1.44	0.0227	1.58e+07
mutant VHH antibody 2bS13-100H (VHH, also called 2bS13-100H/PB (as ligand on the carrier)) VHH: QVQLVESGGGLVQAGGSLRLSCAASGISFAINNVAWYRQAPGKQRDLVALIDKYDTGNIADSVKGRFSISRDNAKNTAYLQMNSLKPEDTAVYYCNALGHWIRAGPYWGQGTQVTVSS	0.376	0.0078	2.08e+07
